Reference: article PMC4396693, “Structural Basis of Latrophilin-FLRT Interaction” (Structure(London, England:1993), 2015)
Positions count from the first letter of the chain named. In names and notes the source's numbering stands. Blank lines part the entries; values can stand above or below the molecule they belong to.

T1: murine LPHN3 olfactomedin domain (LPHN3^Olf, residues 202-463) (murine, UniProt Q80TS3 202-463)
T1 chain: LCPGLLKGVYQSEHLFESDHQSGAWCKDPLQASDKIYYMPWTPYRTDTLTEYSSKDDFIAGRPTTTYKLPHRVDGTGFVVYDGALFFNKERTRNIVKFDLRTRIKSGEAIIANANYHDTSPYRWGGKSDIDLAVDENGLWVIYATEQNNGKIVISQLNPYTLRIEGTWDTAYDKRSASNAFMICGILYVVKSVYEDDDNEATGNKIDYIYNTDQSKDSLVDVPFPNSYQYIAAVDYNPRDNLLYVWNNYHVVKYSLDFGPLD

T2: murine FLRT2 full ectodomain, wild type (residues 35-540) (murine, UniProt Q8BLU0 35-540)
T2 construct: Fibronectin leucine-rich repeat transmembrane protein 2 (FLRT2), mouse, full-length ectodomain, residues 35-540; also called FLRT2 ectodomain; source: HEK293S GlnTI- cells, transiently expressed
T2 sequence (looked up): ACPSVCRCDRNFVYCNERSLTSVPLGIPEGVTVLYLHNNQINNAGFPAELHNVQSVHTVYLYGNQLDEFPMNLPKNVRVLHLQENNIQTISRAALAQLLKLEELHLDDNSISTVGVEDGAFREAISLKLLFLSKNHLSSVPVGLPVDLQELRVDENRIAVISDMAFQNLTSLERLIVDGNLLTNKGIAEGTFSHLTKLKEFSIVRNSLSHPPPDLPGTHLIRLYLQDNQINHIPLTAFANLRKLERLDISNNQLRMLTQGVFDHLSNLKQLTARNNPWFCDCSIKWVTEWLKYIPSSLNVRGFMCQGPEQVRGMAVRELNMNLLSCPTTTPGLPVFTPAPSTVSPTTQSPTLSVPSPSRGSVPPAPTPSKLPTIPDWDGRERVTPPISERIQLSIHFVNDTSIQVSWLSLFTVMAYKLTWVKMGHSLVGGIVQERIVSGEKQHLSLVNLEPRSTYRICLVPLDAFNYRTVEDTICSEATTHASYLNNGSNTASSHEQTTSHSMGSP

T3: murine LPHN3 olfactomedin domain (LPHN3^Olf, residues 202-463), Q80TS3
T3 chain: T1 chain

B1: murine LPHN3 olfactomedin domain (LPHN3^Olf, residues 202-463) (domain or fragment, UniProt Q80TS3 202-463, looked up)
chain: T1 chain
notes: Latrophilin 3 (LPHN3), mouse, olfactomedin-like domain, residues 202-463; also called LPHN3 Olf domain; olfactomedin domain of murine LPHN3; source: kifunensine-treated HEK293T cells, transiently expressed, purified
B2: murine FLRT2 full ectodomain, wild type (residues 35-540), Q8BLU0 UF (protein)
chain: T2 sequence (looked up) with H136N
B3: murine FLRT2 full ectodomain, wild type (residues 35-540) (domain or fragment)
chain: T2 sequence (looked up)
B4: murine LPHN3^Lec-Olf, wild type, biotinylated at a C-terminal Avi-Tag (domain or fragment, UniProt Q80TS3 92-463, looked up)
chain: PIPMAVVRRELSCESYPIELRCPGTDVIMIESANYGRTDDKICDSDPAQMENIRCYLPDAYKIMSQRCNNRTQCAVVAGPDVFPDPCPGTYKYLEVQYECVPYKVEQKVFLCPGLLKGVYQSEHLFESDHQSGAWCKDPLQASDKIYYMPWTPYRTDTLTEYSSKDDFIAGRPTTTYKLPHRVDGTGFVVYDGALFFNKERTRNIVKFDLRTRIKSGEAIIANANYHDTSPYRWGGKSDIDLAVDENGLWVIYATEQNNGKIVISQLNPYTLRIEGTWDTAYDKRSASNAFMICGILYVVKSVYEDDDNEATGNKIDYIYNTDQSKDSLVDVPFPNSYQYIAAVDYNPRDNLLYVWNNYHVVKYSLDFGPLD
modifications: biotin on the C-terminal Avi-Tag (enzymatic)
notes: Latrophilin 3 (LPHN3), mouse, lectin and olfactomedin-like domains; residues 92-463 are stated for the crystallization construct; Limits 92-463 are printed for the crystallization construct; the limits of the Avi-tagged construct may be in the Supplemental Experimental Procedures; also called LPHN^Lec-Olf; not shown: Avi-Tag, C-terminal, kept
B5: murine LPHN3^Lec-Olf mutant LPHN3^LF(3) (T267N+K269T), biotinylated at a C-terminal Avi-Tag (domain or fragment, UniProt Q80TS3 92-463, looked up)
chain: B4 chain with T176N, K178T
modifications: biotin on the C-terminal Avi-Tag (enzymatic)
notes: Latrophilin 3 (LPHN3), mouse, lectin and olfactomedin-like domains; residues 92-463 are stated for the crystallization construct; artificial N-linked glycosylation site; not shown: Avi-Tag, C-terminal, kept
B6: murine LPHN3^Lec-Olf mutant LPHN3^LF(4) (P244N+R246T), biotinylated at a C-terminal Avi-Tag (domain or fragment, UniProt Q80TS3 92-463, looked up)
chain: B4 chain with P153N, R155T
modifications: biotin on the C-terminal Avi-Tag (enzymatic)
notes: as for B5

Assays:
[1] = target: T1, murine LPHN3 olfactomedin domain …; test: SPR
[2] = target: murine FLRT2 full ectodomain, wild type (residues 35-540) (murine) (UniProt Q8BLU0); test: SPR; one or the other of the two set-ups (FLRT2 ectodomain on CM5 with LPHN3 Olf as analyte, or LPHN3^Lec-Olf on streptavidin with FLRT2 ectodomain as analyte); the text does not say which value belongs to which; 25°C, PBS pH 7.5
[3] = target: T2, murine FLRT2 full ectodomain, wild type …; test: SPR; FLRT2 ectodomains (wild type, UF, FF) amine-coupled to a CM5 Biacore chip, LPHN3 Olf domain injected as analyte; equilibrium, 25°C, PBS pH 7.5, 0.005% polysorbate 20; 1:1 model; conditions: both partners purified
[4] = target: T3, murine LPHN3 olfactomedin domain …; test: SPR; conditions: chain shown with the change
[5] = target: B3; test: SPR
[6] = target: T2, murine FLRT2 full ectodomain, wild type …; test: SPR; biotinylated wild-type or mutant LPHN3^Lec-Olf on streptavidin-coated Biacore chips, FLRT2 ectodomain injected as analyte; equilibrium, 25°C, PBS pH 7.5, 0.005% polysorbate 20; 1:1 model; conditions: both partners purified
[7] = maximum response at the highest LPHN3 Olf concentration plotted (about 2 µM), parent: est. 390, read off a plot

response [1, 7]: -0 RU
Molecule: murine FLRT2 full ectodomain, wild type (residues 35-540) (from UniProt Q8BLU0) FF

Kd [2]: 18 to 40 nM
Molecule: wild-type LPHN3 proteins

Molecule: B1
binding result [3]: binds

Molecule: B2
Kd ([4]; FLRT2 ectodomains immobilized on a CM5 Biacore chip, LPHN3 olfactomedin domain injected as analyte, 1:1 binding model, parent: 40 nM): 15 nM | response [4, 7]: 390 RU

Molecule: B3
Kd [1]: 40 nM

Molecule: B4
Kd [5]: 18 nM | binding result [6]: binds

Molecule: B5
binding result [6]: binds

Molecule: B6
binding result [6]: binds
